Experimental data published in patent US20080166345A1, “MEDICAMENTS COMPRISING GENE RECOMBINANT ANTIBODY AGAINST GANGLIOSIDE GD3” (KYOWA HAKKO KOGYO CO., LTD., priority 2001, published 2008).

Columns and labels:
[1] = tested on: human melanoma culture cell line SK-MEL-28; test: Reactivity with human cancer cell (immunofluorescent method); format: binding; details: antibody 5 μg/ml; FIG. 23
Description: (§1) Reactivity of purified anti-GD3 CDR-grafted antibodies KM8869, KM8870 and KM8871 with human cancer cells was measured as follows. That is, 1×10^6 cells of each of human melanoma culture cell lines G-361 (ATCC CRL 1424) and SK-MEL-28 (ATCC HTB72) were suspended in PBS, put into microtubes and centrifuged (2,000 rpm for 2 minutes), and the thus washed cells were stirred after adding 50 μl of the anti-GD3 chimeric antibody KM871 or the anti-GD3 CDR-grafted antibody, KM8869, KM8870 or KM8871 (a solution adjusted to 5 μg/ml with 1% BSA-PBS) and then allowed to react at 4° C. for 1 hour. After the reaction, followed by centrifugation three times with PBS for washing, 20 μl of rabbit anti-human IgG (H+L) F(ab′)2 solution (manufactured by Wako Pure chemical Industries, used by diluting 30 folds with 1% BSA-PBS) fluorescence-labeled with fluorescein isothiocyanate (hereinafter referred to as “FITC”) was added thereto, followed by stirring, and then the reaction was carried out at 4° C. for 1 hour. After the reaction, followed by centrifugation three times with PBS for washing, the cells were again suspended in PBS to carry out the analysis using a flow cytometer EPICS Elite (manufactured by COULTER). As a control, the analysis was carried out by the same procedure without adding antibodies.

[2] = tested on: human melanoma culture cell line G-361; test: as above; format: binding; details: antibody 5 μg/ml; FIG. 23
Description: as §1

[3] = tested on: human melanoma culture cell line SK-MEL-28; test: In vitro cytotoxic activity (CDC activity), 51Cr release; format: cell-based; details: antibody 0.05 to 50 μg/ml, human complement; FIG. 24
Description: (§2) Each of human melanoma culture cell lines, G-361 (ATCC CRL 1424) and SK-MEL-28 (ATCC HTB72), was cultured in RPMI1640-FBS(10) medium and adjusted to 5×10^6 cells, and the cells were isotope-labeled by adding 3.7 MBq equivalent of a radioactive substance Na2^51CrO4 and carrying out the reaction at 37° C. for 1 hour. After the reaction, the cells were washed three times by their suspension in RPMI1640-FBS(10) medium and centrifugation, re-suspended in the medium and then incubated in ice at 4° C. for 30 minutes to thereby spontaneously release the radioactive substance. […]
(§3) To each well of a 96 well U bottom plate (manufactured by Falcon), 50 μl of the target cell suspension prepared in “a.” was added (5×10^4 cells/well), and then the anti-GD3 chimeric antibody KM871 or the anti-GD3 CDR-grafted antibody, KM8869, KM8870 or KM8871, was added to give a final concentration of 0.05 to 50 μg/ml and allowed to react at room temperature for 30 minutes. […] After centrifugation, the amount of ^51Cr released in the supernatant was measured by a γ-counter. The amount of the spontaneously dissociated ^51Cr was calculated by carrying out the same procedure using the medium alone instead of the antibody solution and complement solution and measuring the amount of ^51Cr in the supernatant. […] The CDC activity was calculated by the following equation.

[4] = tested on: human melanoma culture cell line G-361; test: as above; format: cell-based; details: antibody 0.05 to 50 μg/ml, human complement; FIG. 24
Description: as §2, §3

[5] = tested on: human melanoma culture cell line SK-MEL-28; test: In vitro cytotoxic activity (ADCC activity), 51Cr release; format: cell-based; details: antibody 0.05 to 50 μg/ml, effector:target 50:1; FIG. 25
Description: (§4) Each of human melanoma culture cell lines, G-361 (ATCC CRL 1424) and SK-MEL-28 (ATCC HTB72), was cultured in RPMI1640-FBS(10) medium and adjusted to 1×10^6 cells, and the cells were isotope-labeled by adding 1.85 MBq equivalent of a radioactive substance Na2^51CrO4 and carrying out the reaction at 37° C. for 1 hour. After the reaction, the cells were washed three times by their suspension in RPMI1640-FBS(10) medium and centrifugation, re-suspended in the medium and then incubated in ice at 4° C. for 30 minutes to thereby spontaneously release the radioactive substance. After centrifugation, the cells were adjusted to 2×10^5 cells/ml by adding 5 ml of RPMI1640-FBS(10) medium and used as the target cell suspension.
(§5) Healthy human vein blood (50 ml) was collected, and 0.5 ml of heparin sodium (manufactured by Takeda Pharmaceutical) was gently added thereto. The resulting mixture was centrifuged (1,500 to 1,800×g for 30 minutes) using Polymorphprep (manufactured by Nycomed Pharma AS) in accordance with the manufacturers instructions to separate a mononuclear cell layer. […]
(§6) Into each well of a 96 well U bottom plate (manufactured by Falcon), 50 μl of the target cell suspension prepared in “a.” was dispensed (1×10^4 cells/well). […] After the reaction, the plate was centrifuged and the amount of ^51Cr in the supernatant was measured by a γ-counter. The amount of the spontaneously dissociated ^51Cr was calculated by carrying out the same procedure using the medium alone instead of the effector cell suspension and antibody solution and measuring the amount of ^51Cr in the supernatant. The amount of the total dissociated ^51Cr was calculated by carrying out the same procedure by adding the medium alone instead of the antibody solution, and 5 N sodium hydroxide instead of the effector cell suspension, and measuring the amount of ^51Cr in the supernatant. The ADCC activity was calculated by the following equation.

[6] = tested on: human melanoma culture cell line G-361; test: as above; format: cell-based; details: FIG. 25
Description: as §4, §5, §6

B1: KM871: anti-GD3 human chimeric antibody; VH SEQ ID NO:49, VL SEQ ID NO:50, human IgG1 and κ C regions (antibody, listed as Mus musculus, V domains shown)
VH: EVTLVESGGDFVKPGGSLKVSCAASGFAFSHYAMSWVRQTPAKRLEWVAYISSGGSGTYYSDSVKGRFTISRDNAKNTLYLQMRSLRSEDSAMYFCTRVKLGTYYFDSWGQGTTLTVSS
VL: DIQMTQTASSLPASLGDRVTISCSASQDISNYLNWYQQKPDGTVKLLIFYSSNLHSGVPSRFSGGGSGTDYSLTISNLEPEDIATYFCHQYSKLPWTFGGGTKLEIKR
modifications: human IgG1 and kappa constant regions
[1]
  reactivity with cells: showed the reactivity
[2]
  reactivity with cells: showed the reactivity
[3]
  CDC activity: show the CDC activity
[4]
  CDC activity: remarkably strong cytotoxic activity
[5]
  ADCC activity: strong ADCC activity
[6]; G-361 and SK-MEL-28
  difference in ADCC cytotoxic activity among KM871, KM8869, KM8870 and KM8871: difference in the cytotoxic activity was not found
[6]; antibody 0.05 to 50 μg/ml, effector:target 50:1
  ADCC activity: strong ADCC activity
